Results reported in paper PMC4787601.

Target: phospholamban peptide, first 21 amino acids, wild type (UniProt P26678)
Experiment: SPR

Chain of UniProt P26678 (P26678 1-21): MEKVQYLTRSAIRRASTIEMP

- Kd: 13.3 nM
Substance: purified AKAP7γ (from UniProt Q9P0M2 1-348) (natural protein)
